Test results reported in the supplement of paper PMC12042874.
± gives the uncertainty stated by the source.

assay: amyloid nucleation score (Sup35N fusion, yeast selection) (log enrichment); library NNK2; higher = more nucleation; inactive = no reads after selection
Method in brief: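 For the nucleation score, DiMSum gave the log enrichment of output over input reads, centred on the mode score of non-aggregating sequences. Psi-negative yeast expressing Sup35N fused to peptides of 20 random codons were induced with 100 μM copper sulfate for 24 hours and grown 7 days at 30°C on medium lacking adenine and uracil. Input and output plasmid inserts were Illumina-sequenced, and sequences with under 100 input reads were excluded.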

Row | Substance | amyloid nucleation score
1 | FGDSDRMRAGRLWFMWSLVA | 0.639 ± 0.35
2 | CFCWLLNSNLKGNLSRGRHL | -0.337 ± 1.1
3 | ASPLQPLSGYVIVRVAPSIT | 0.266 ± 0.51
4 | RECNRNFQKSGSSEHETGLG | -0.844 ± 0.54
5 | HSLLSYMFSFQLTNMNCDLG | -0.117 ± 0.56
6 | GERRTSLVVKYGRVAGYTYN | -0.273 ± 0.62
7 | WTVGRRELGCM | inactive
8 | SFRYLCIRNGTSYGMYTSPV | 0.478 ± 0.8
9 | ELVVPQWGQRRVHDLVCVEP | 1.75 ± 0.29
10 | YSVLFL | -0.722 ± 0.54
11 | MANSTLRV | 0.314 ± 0.39
12 | FMNNMSWLKNFILTWIYKRR | inactive
13 | LCRYFQN | 0.218 ± 0.8
14 | PCVPGDYTVAKVAFSTY | -0.011 ± 1.1
15 | LFGGRGKRVRLKVLLTQRF | -0.37 ± 0.32
16 | LNFKWANCVFVDSNCQQ | 3.13 ± 0.17
17 | VWQQS | 0.668 ± 0.49
18 | NFSYRSFNRLVRGRD | inactive
19 | YFRNDNGLWEINSCRILFIV | inactive
20 | SNVFEVGPMGPSR | 0.056 ± 0.5
21 | DISYGSSDINHCLVTYMWQC | 0.192 ± 1
22 | ESPTVCPANF | -0.248 ± 0.65

Row | Substance | amyloid nucleation score
23 | FGQIRCWYTMICYGQDIGFT | 6.37 ± 0.047
24 | RVGTLKTISFHSNLNSNKIR | -0.614 ± 0.33
25 | HSHPCDREFLPRMHAWLDSS | -0.135 ± 0.33
26 | CEEFMKFFAGYQTHVLVFSR | inactive
27 | MTFVHVSNMWDRNEGICGDE | -0.323 ± 0.41
28 | KRKFRMWSQNIFLKVGNILA | -1.47 ± 0.55
29 | TRDILGRGVDQFFIVSYRFN | -1.11 ± 0.45
30 | ILVTVNTGSFLKSILHWL | 2.31 ± 0.19
31 | ALNPVCL | 0.623 ± 0.62
32 | SYARIYFWDEILENPSPVWE | -0.378 ± 1
33 | AFATRCCSTLIDPSFVIGTG | 0.692 ± 0.41
34 | LFAYYGWVFYMSIRCVHMGM | -0.583 ± 1.1
35 | RTHPTCSVCVKLYPLGTPRR | 2.38 ± 0.13
36 | FAFIYVIT | inactive
37 | VMYYEGG | -0.561 ± 0.63
38 | AFYIRLIAREP | inactive
39 | VHSGLYAKCVRLYMQNFPHL | 0.192 ± 0.79
40 | RCLLKLDQV | -0.509 ± 0.4
41 | FFRVRPFISYYWHTLLSVLW | -1.24 ± 1.1
42 | LAWWFY | -0.325 ± 0.76
43 | LPLKNRVVDTCRKRFVGEVG | -0.19 ± 1
44 | SDVSREVKV | -0.038 ± 0.37

Row | Substance | amyloid nucleation score
45 | NYFCIRS | 4.11 ± 0.052
46 | TVGGNQTLSKLFWSFQGMFW | inactive
47 | CVKRRWPEVIRVHVGGYSFN | 0.455 ± 0.5
48 | RFDCLTVLLVFESYHFKTAG | -0.392 ± 0.31
49 | TDCTLSGKRLRYLNGDCFKK | -1.13 ± 0.55
50 | FSPVSPSSGKAHGIGLVLLV | 0.083 ± 0.41
51 | YVSECVANA | inactive
52 | EFHVRGDSDGYC | -1.41 ± 1.1
53 | YMSIHSKAGMVSLDLKCLCT | -0.427 ± 1
54 | WCCPPHGRQP | 0.876 ± 0.43
55 | GWQGTLVNCLEDYVCYVCHA | 5.34 ± 0.058
56 | PCFRWSRGRKSCECCHVGYM | 0.122 ± 0.25
57 | EFMLSVRKVVPRIYGNNPRV | 2.78 ± 0.084
58 | EVADSRKVSSATWSISSNQR | 1.41 ± 0.4
59 | DRNMSVNI | 1.22 ± 0.44
60 | IVVKFCWCVGQSRYTGMSTN | 6.71 ± 0.052
61 | VFFGPTFCFVPYVNMRCLVP | 8.082 ± 0.059
62 | ILEFKINPG | -1.05 ± 0.43
63 | KWYFRSWRLMLYSVKFSFRI | -0.693 ± 0.55
64 | IWTSRQTTIEAITRAHNPST | 3.83 ± 0.084
65 | GSYSWSELSCMLFLFVGVSR | 0.411 ± 0.53
66 | QQCLINVSSRLLAGVNACSM | 1.22 ± 0.34

Row | Substance | amyloid nucleation score
67 | FSRADTVF | 2.79 ± 0.13
68 | MNFCNHPLMDLMVSDLAWWM | 0.112 ± 0.37
69 | VLPMVRMSINIVVGCWSQKL | 3.79 ± 0.081
70 | FCVIPIKGQRSLHIPVQLFG | -1.07 ± 0.76
71 | SVDGMLSVSVLVNDVVKTPL | 0.309 ± 0.22
72 | RFFADLTMDQFNIFGGLWQG | 1.09 ± 0.3
73 | GSYDLEGGLLHGLTTTSYNR | -0.235 ± 0.55
74 | CFRRKGALSLIACRW | -0.03 ± 0.46
75 | NTITIMHSDEYVMRVSYICQ | 1.87 ± 0.2
76 | CRRTFDSLIS | -0.74 ± 0.78
77 | ISEFHGYSMFKHEARQNGCQ | 5.516 ± 0.033
78 | RQRVMHAHHCLLYLMVKHFI | -0.675 ± 1.1
79 | AHEYEPNFFRLCYKVRLWNA | -0.244 ± 0.22
80 | RFEYLFLEEYKLLAMRYLRT | -0.986 ± 0.3
81 | SNFPWPMERPEFSDDSVFWA | -0.313 ± 0.76
82 | AINAKRHTWLFNLHSTFLCF | 2.8 ± 0.14
83 | QNRKERYVYIFRAEWFPWCG | -1.13 ± 0.76
84 | RTSAPVLRYSVCLNAKYSLG | 0.683 ± 0.21
85 | LTPYEYCVYDCFLSLESVLF | inactive
86 | YCILLLNVVVMCYMMCDGFA | 0.635 ± 0.65
